Residue numbers refer to the chain shown, from its start.

Experiment [1] concerns the target T1, thermolysin-cleaved EBOV GP on Jurkat-GP cells (cleaved GP) (Zaire ebolavirus, Makona (GP1 core …, strain)).
T1 chain 1: not shown
T1 chain 2: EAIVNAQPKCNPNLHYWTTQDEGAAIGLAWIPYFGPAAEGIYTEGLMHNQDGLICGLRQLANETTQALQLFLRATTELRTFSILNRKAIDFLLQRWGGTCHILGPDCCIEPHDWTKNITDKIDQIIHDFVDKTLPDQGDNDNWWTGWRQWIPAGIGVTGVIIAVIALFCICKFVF

In experiment [2] the target is EBOV GP ectodomain residues 1-636 (GPec) (Zaire ebolavirus, strain  …, UniProt Q05320).

B1: 5.6.c4172 (antibody, V domains shown)
VH: QVQLQESGPGLVKPSGTLSLTCAVSGGSISSHYWWSWVRQSPGKGLEWLGEIYQIGSTNYNPSLKSRVSMSVDESKNQFSLSLTSVTAADTAVYYCARDQGHWNPGKGAFDIWGQGALVTVSS
VL: QSVLTQPPSVSAAPGQRVTISCSGSNSNIGKNFVSWYQQFPGTAPKLLIYDNDKRPSGIPDRFSGSKSGTSATLGITGLQTGDEADYFCATWDTTLSAWVFGGGTKVTVL
In the case of B1, the binding result in experiment [1] is listed as “binds”.

B2: 15.0.c819 (antibody, V domains shown)
VH: QVQLVESGGGVVQPGRSLRLSCAASGFTFSSYAMHWVRQAPGKGLEWVAVISYDGSNKYYADSVKGRFTISRDNSKNTLYLQMNSLRAEDTAVYYCARDLLWFGELLFREYYMDVWGKGTTVTVSS
VL: not shown
Take B2: in experiment [1], the binding result is “binds”.

B3: 9.1.c1426 (antibody, V domains shown)
VH: QVQLQESGPGLVKPSQTLSLTCTVSGGSISSGDYYWSWIRQPPGKGLEWIGYIYYSGSTYYNPSLKSRVTISVDTSKNQFSLKLSSVTAADTAVYYCARGYSSGWYLAYFQHWGQGTLVTVSS
VL: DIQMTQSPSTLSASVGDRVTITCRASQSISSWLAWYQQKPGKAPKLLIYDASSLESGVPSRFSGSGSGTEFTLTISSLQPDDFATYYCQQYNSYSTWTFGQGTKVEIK
Consider B3, for which the binding result in experiment [1] is on record as “binds”.

B4: 15.0.c800 (antibody, V domains shown)
VH: EDQLLESGGGLVQPGGSLRLSCAVSGFTFSGYDLSWVRQAPGKGLEWVSIFSGSGGRKYYADSVKGRFTLSIDNSKNTLYLQMNSLRAEDTAVYYCAGDSSGYNNERMYYTYYMDVWGKGTTVTVSS
VL: DIQMTQSPSSVSASVGDRVIITCRASQGISSWLAWYQQKPGKAPKLLIYAASSLQSGVPSRFSGSGSGTDFTLTISSLQPEDFATYYCQQANSFPLSFGGGTKVEIK
Take B4: in experiment [1], the binding result is on record as “binds”.

B5: 15.0.c830 (antibody, V domains shown)
VH: EEQLLESGGGLVQPGGSLRLSCTVSGFTFSGYDMSWVRQAPGKGLEWVSLLSASGGGKYYADSVRGRFTISRDNSKNTMYLEMNSLRADDTAIYYCATDSSGYNYERLYYTYYMDVWGRGTTVSVSS
VL: B4 VL with I20T, S31V, Y49H, T72S, S97T
Turning to B5, the binding result in experiment [1] is “binds”.

B6: 5.6.c2617 (antibody, V domains shown)
VH: EVQLVESGGGLVQPGGSLRLSCVASGFTFSSYEMDWVRQAPGKGLEWVSYIGSSGSTIYYADSVKGRFTISRDNAKNSLYLQMNSLRAEDTAVYYCARDTETTGLYYYGMDVWGQGTTVTVSA
VL: B4 VL with I20T, S31R, A50G, A51T, L96F, S97T, G100P, K103R, E105D
In the case of B6, in experiment [2], the binding result was “binds”.

B7: 15.0.c792 (antibody, V domains shown)
VH: EVQLVESGGGLVQPGGSLRLSCAASGFTFSSYSMNWVRQAPGKGLEWVSYISSSSSTIYYADSVKGRFTISRDNAKNSLYLQMNSLRAEDTAVYYCARESPTYYDFWSGYSDYWGQGTLVTVSS
VL: NFMLTQPHSVSESPGKTVTISCTRSSGSIASNYVQWYQQRPGSSPTTVIYEDNQRPSGVPDRFSGSIDSSSNSASLTISGLKTEDEADYYCQSYDSSNRVFGGGTKLTVL
On to B7, for which the binding result in experiment [1] was “binds”.

B8: 5.6.c3387 (antibody, V domains shown)
VH: QLQLQESGPRLVKPSETLSLTCTVSGGSINRNSYYWGWIRQPPGKGLEWIGTIYYSGSPYYNPSLKSRVTISVDTSKNQFSLKLDSVTAADTALYFCASLWGWNDVGWFDSWGQGTLVTVSS
VL: EIVLTQSPGTLSLSPGERATLSCRASQSVSSGYLAWYQQKPGQAPRLLIYGASIRAAGIPDRFSGSGSGTDFTLTISRLEPEDFAVYFCQQYGTSPLTFGPGTTVDIK
Regarding B8, the binding result in experiment [1] is on record as “binds”.

B9: 15.0.c846 (antibody, V domains shown)
VH: EVQLVESGGGLVQPGGSLRLSCAASGFTFSSYWMSWVRQAPGKGLEWVANIKQDGSEKYYVDSVKGRFTISRDNAKNSLYLQMNSLRAEDTAVYYCARTRDSSSSFYYYYYMDVWGKGTTVTVSS
VL: not shown
Consider B9, for which, in experiment [1], the binding result was “binds”.

B10: 5.6.c2902 (antibody, V domains shown)
VH: QVQLQESGPGLVKPSQTLSLTCTVSGASINSRDSYWSWIRQPPGKGLEWIGYIYYSGSTYSNPSLKSRVTMSVDTSKNQISLQLSSVTAADTAVYYCARVEGNEILFSLWYFDIWGRGTPVSVSS
VL: QSVLTQPPSVSAAPGQKVTISCSGSSSNIGNNYVSWYQQLPGTAPKLLIYDNNKRPSGIPDRFSGSKSGTSATLGITGLQTGDEADYYCGSWDSSLSAGHWVFGGGTKLTVL
In the case of B10, in experiment [2], the binding result was “binds”.

B11: 9.1.c1410 (antibody, V domains shown)
VH: EVQLVESGGGLVKPGGSLRLSCAASGFTFSSYSMNWVRQAPGKGLEWVSSISSSSSYIYYADSVKGRFTISRDNAKNSLYLQMNSLRAEDTAVYYCARDLSEYQLLLSYFDYWGQGTLVTVSS
VL: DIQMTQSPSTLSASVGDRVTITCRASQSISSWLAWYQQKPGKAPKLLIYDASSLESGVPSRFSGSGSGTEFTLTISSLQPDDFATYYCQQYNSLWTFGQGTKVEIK
For the molecule B11, the binding result in experiment [1] is recorded as “binds”.

B12: 15.0.c912 (antibody, V domains shown)
VH: QVQLQESGPGLVKPSQTLSLTCTVSGGSISSGGYYWNWVRQHPGKGLEWIGYISYSGSTFYSGSTYYNPSLKSRITISLDTSKNQFSLNLSSVTAADTAVYYCARDRGDPGGYYNYGMDVWGQGTTVTVSS
VL: QSVLTQPPSASGTPGQRVTISCSGSSSNIGSHYVYWYQQLSGTAPKLLIYRNNERPSGVPDRFSGSKSGTSASLAISGLRSEDEADYYCATWDDSQRVFGGGTKLTVL
Regarding B12, the binding result in experiment [1] is reported as “binds”.

B13: 5.6.c3010 (antibody, V domains shown)
VH: EVQLVESGGGLVQPGGSLRLSCAASGLTVSSNYMNWVRQAPGKGLEWVSVIYSGGRTYYADSVKGRFTISRDISKNTVYLEMNSLRADDTAVYYCARIYFFYNGMDVWGQGTTVTVSP
VL: EILLTQSPGTLSLSPGERATLSCRASQSVSSNYLAWFQQKPGQAPRLLIYGASSRATGIPDRFSGSGSGTDFTLTISRLEPEDFALYYCQQYGSSPPWTFGQGTKVEMK
In the case of B13, in experiment [1], the binding result was “binds”.

B14: 15.0.c835 (antibody, V domains shown)
VH: not shown
VL: DIQLTQSPSFLSASVGDRVTITCRASQGISSYLAWYQQKPGKAPKLLIYAASTLQSGVPSRFSGSGSGTEFTLTISSLQPEDFATYYCQQLNSYGYTFGQGTKLEIK
Turning to B14, in experiment [1], the binding result is recorded as “binds”.

B15: 5.6.c3169 (antibody, V domains shown)
VH: QVQLVQSGTEVKKPGASVRVSCKSSGYTFTNYGINWVRQAPGQGLEWLGWISTYNDNINYAQKFQGRVTMTTDTSTSTAYMELRSLRSDDTAIYYCAKDSSAYWDLLFYGMDVWGQGTTVTVSS
VL: B14 VL with L11V, Y32S, K45N, T53A, E70D, Y87F, G95P
In the case of B15, in experiment [2], the binding result was “binds”.

B16: 5.6.c2647 (antibody, V domains shown)
VH: QDQLVQSGAEVKKPGASVKVSCKASGYSFTGHYIHWVRRAPGRGLEWMGWINPDSGGTNYAQKFQGWVSMTRDTSISTAYMELSSLKSDDTAVYYCARGITMICDLWGQGTQVTVSS
VL: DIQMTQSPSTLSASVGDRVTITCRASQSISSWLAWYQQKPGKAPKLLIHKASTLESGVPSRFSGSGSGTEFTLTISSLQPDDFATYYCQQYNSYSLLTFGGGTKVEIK
Regarding B16, the binding result in experiment [1] was “binds”.

B17: 5.6.c2875 (antibody, V domains shown)
VH: EVQLVESGGGVVQPGGSLRLSCAASGFTLRNFDMHWVRQVTGKGLEWVSGIGTAGDTYYPDSVKGRFTISRENAKNSLYLQMNSLRAEDTAVYYCARARWLQFDNWGQGALVTVSS
VL: EIVLTQSPGTLSLSPGERATLSCKASQRVTSNFLAWYQQTPGQAPRLLIYSASSRATGIPDRFSGSGSGTDFTLTISRLEPEDFAVYYCQQYRSSRYTFGQGTKLEIK
On to B17, for which the binding result in experiment [2] is “binds”.

B18: 15.0.c779 (antibody, V domains shown)
VH: EVQMVESGGGLVKPGGSLRLSCAASGFIFSNAWMSWVRQAPGKGLEWVGRIKGKTDGGTTDYAAPVKGRVTISRDDSKNTLFLQMNSLKTEDTAVYFCTADVLPAATRGVYYYYYYMDVWGKGTTVTVSS
VL: QSALTQPASVSGSPGQSITISCTGTSSDVGGYNYVSWYQQHPGKAPKLMIYDVSKRPSGVSNRFSGSKSGNTASLTISGLQAEDEADYYCCSYTGRSTVVFGGGTTLTVL
Regarding B18, the binding result in experiment [1] is on record as “binds”.

B19: 15.0.c780 (antibody, V domains shown)
VH: EVQLVESGGGLVKPGGSLRLSCAASGFTFSNAWMSWVRQAPGKGLEWVGRIKGKTDGGTTDYAAPVRGRFTISRDDSKNMLYLQMNSLKTEDTAIYYCTADVIPAATRGVYYYYYYMDVWGEGTTVAVSS
VL: B18 VL with V60L, T94A, G95R, R96S, T106K, L107V
Turning to B19, the binding result in experiment [1] is on record as “binds”.

B20: 15.0.c778 (antibody, V domains shown)
VH: QVQLHESGPGVVKVSETLSLTCTLSGGSINGNSWSWIRQTAGKGLEWIGRVYTSGSPNYNPSLKSRLTMSIVTSKNQFSLTLRSVTAADTAIYYCARDFVVIDPTRVVDDYDAFDVWGRGTVVTVSS
VL: DIQLTQSPSILSASVGDRVTITCRASQSVSRYLAWYQQKPGNAPKLLIYKVSTLQSGVPSRFSGSASGTEFTLTINSLQPDDFATYYCHQYNGYLYTFGQGTKVDVK
Take B20: the binding result in experiment [1] is recorded as “binds”.

B21: 15.0.c865 (antibody, V domains shown)
VH: EVQLVESGGSVVRPGGSLRLSCAASVFTFENYGMSWVRQTPGKGLEWVSSINWNGANTGYADSVKGRFTVSRDNAKNSLYLQMNSLRAEDTALYYCARHRYDSSGQWYFDYWGQGTLVTVSS
VL: SYELTQPPSVSVSPGQTARITCSGDALPKKYAYWYQQKPGQAPVLVIYEDSKRPSGIPERFSGSRSGTMATLTISGAQVADEADYYCYSPDSSGNHRIFGTGTKVTVL
B21: the binding result in experiment [1] was “binds”.

B22: 15.0.c942 (antibody, V domains shown)
VH: EVQLVESGGGVVRPGGSLRLTCAASGFIFENYGMSWVRQAPGKGLEWVSALNWNGVNTYYSDSVKGRFTISRDNAKNSLYLQMNSLSAEDTAFYYCAVHYYDSSGIYYLDDWGQGTLVTVSS
VL: QSVLTQPPSVSAAPGQKVSISCSGSSSNIGKNYVYWYQHVPGAAPKLLIYENDKRPSGIPDRFSGSKSGTSATLDITGLQTGDEAEYYCATWQSGLSAHVVFGGGTKLTVL
In the case of B22, in experiment [1], the binding result is on record as “binds”.

The record behind these values is paper PMC6908968 (Cell, 2019).
